Assays:
[1] = biological target: T1, DLL4 (DLL4 ECD/His tag, R&D Systems 1506-D4-050) (UniProt Q9NR61 27-529); assay: Direct bind ELISA on DLL4; DLL4 domain N-term., HC long, LC short
T1 construct: extracellular domain; not shown: His tag

[2] = biological target: T1, DLL4 (DLL4 ECD/His tag, R&D Systems …); assay: Direct bind ELISA on DLL4; DLL4 domain C-term., HC long, LC long
[3] = biological target: T1, DLL4 (DLL4 ECD/His tag, R&D Systems …); assay: Direct bind ELISA on DLL4; DLL4 domain C-term., HC long, LC short

EC50 [1] [nM] | Binder | EC50 [2] [nM] | other results
0.18 | DVD501 (DLL4/VEGF DVD-Ig) (bispecific antibody, human IgG1, HC linker long, LC linker short; also called DVD501H; DVD501L) VH: EVQLQQSGPELVKPGASVKMSCKASGYTFTSYVINWVKQKPGQGLEWIGLINPYNDGTKYNEKFKVKATLTSDKSSSTAYMELSSLTSEDSAVYYCASYYYGSRYYFDYWGQGTTLTVSSASTKGPSVFPLAPEVQLVESGGGLVQPGGSLRLSCAASGFTISDYWIHWVRQAPGKGLEWVAGITPAGGYTYYADSVKGRFTISADTSKNTAYLQMNSLRAEDTAVYYCARFVFFLPYAMDYWGQGTLVTVSS VL: DIQMTQSSSYLSVSLGGRVTITCKASDHINNWLAWYQQKPGNAPRLLISGATSLETGVPSRFSGSGSGKDYTLSITSLQTEDVATYYCQQYWSIPLTFGAGTKLELKRTVAAPDIQMTQSPSSLSASVGDRVTITCRASQDVSTAVAWYQQKPGKAPKLLIYSASFLYSGVPSRFSGSGSGTDFTLTISSLQPEDFATYYCQQSYTTPPTFGQGTKVEIKR |  | 
 | DVD520 (VEGF/DLL4 DVD-Ig) (bispecific antibody, human IgG1, HC linker long, LC linker long; also called DVD520H; DVD520L) VH: EVQLVESGGGLVQPGGSLRLSCAASGFTISDYWIHWVRQAPGKGLEWVAGITPAGGYTYYADSVKGRFTISADTSKNTAYLQMNSLRAEDTAVYYCARFVFFLPYAMDYWGQGTLVTVSSASTKGPSVFPLAPEVQLQQSGPELEKPGASVKISCKASGYSFTGYNMNWVKQSNGKSLEWIGNIDPYFGGTNYNQKFKGKATLTVDKSSSTAYMQLKSLTSEDSAVYYCARNYDYDGGCFDYWGQGTTLTVSS VL: DIQMTQSPSSLSASVGDRVTITCRASQDVSTAVAWYQQKPGKAPKLLIYSASFLYSGVPSRFSGSGSGTDFTLTISSLQPEDFATYYCQQSYTTPPTFGQGTKVEIKRTVAAPSVFIFPPQAVVTQESALTTSPGETVTLTCRSSTGAVTTSNYANWVQEKPDHLFTGLIGGTNNRAPGVPARFSGSLIGDKAALTITGAQTEDEAIYFCALWYSNHWVFGGGTKLTVLG | 17.3 | 
 | DVD526 (VEGF/DLL4 DVD-Ig) (bispecific antibody, human IgG1, HC linker long, LC linker short; also called DVD526H; DVD526L) VH: EVQLVESGGGLVQPGGSLRLSCAASGFTISDYWIHWVRQAPGKGLEWVAGITPAGGYTYYADSVKGRFTISADTSKNTAYLQMNSLRAEDTAVYYCARFVFFLPYAMDYWGQGTLVTVSSASTKGPSVFPLAPEVQLQQSGPELEKPGASVKISCKASGYSFTGYNMNWVKQSNGKSLEWIGNIDPYFGGTNYNQKFKGKATLTVDKSSSTAYMQLKSLTSEDSAVYYCARNYDYDGGCFDYWGQGTTLTVSS VL: DIQMTQSPSSLSASVGDRVTITCRASQDVSTAVAWYQQKPGKAPKLLIYSASFLYSGVPSRFSGSGSGTDFTLTISSLQPEDFATYYCQQSYTTPPTFGQGTKVEIKRTVAAPQAVVTQESALTTSPGETVTLTCRSSTGAVTTSNYANWVQEKPDHLFTGLIGGTNNRAPGVPARFSGSLIGDKAALTITGAQTEDEAIYFCALWYSNHWVFGGGTKLTVLG |  | EC50 [3]: 1.57 nM
1 | DVD525 (DLL4/VEGF DVD-Ig) (bispecific antibody, human IgG1, HC linker long, LC linker short; also called DVD525H; DVD525L) VH: EVQLQQSGPELEKPGASVKISCKASGYSFTGYNMNWVKQSNGKSLEWIGNIDPYFGGTNYNQKFKGKATLTVDKSSSTAYMQLKSLTSEDSAVYYCARNYDYDGGCFDYWGQGTTLTVSSASTKGPSVFPLAPEVQLVESGGGLVQPGGSLRLSCAASGFTISDYWIHWVRQAPGKGLEWVAGITPAGGYTYYADSVKGRFTISADTSKNTAYLQMNSLRAEDTAVYYCARFVFFLPYAMDYWGQGTLVTVSS VL: QAVVTQESALTTSPGETVTLTCRSSTGAVTTSNYANWVQEKPDHLFTGLIGGTNNRAPGVPARFSGSLIGDKAALTITGAQTEDEAIYFCALWYSNHWVFGGGTKLTVLGQPKAAPDIQMTQSPSSLSASVGDRVTITCRASQDVSTAVAWYQQKPGKAPKLLIYSASFLYSGVPSRFSGSGSGTDFTLTISSLQPEDFATYYCQQSYTTPPTFGQGTKVEIKR |  | 
 | DVD472 (VEGF/DLL4 DVD-Ig) (bispecific antibody, human IgG1, HC linker long, LC linker long; also called DVD472H; DVD472L) VH: EVQLVESGGGLVQPGGSLRLSCAASGFTISDYWIHWVRQAPGKGLEWVAGITPAGGYTYYADSVKGRFTISADTSKNTAYLQMNSLRAEDTAVYYCARFVFFLPYAMDYWGQGTLVTVSSASTKGPSVFPLAPEVQLVESGGGLVQPGGSLRLSCAASGFTFTDNWISWVRQAPGKGLEWVGYISPNSGFTYYADSVKGRFTISADTSKNTAYLQMNSLRAEDTAVYYCARDNFGGYFDYWGQGTLVTVSS VL: DIQMTQSPSSLSASVGDRVTITCRASQDVSTAVAWYQQKPGKAPKLLIYSASFLYSGVPSRFSGSGSGTDFTLTISSLQPEDFATYYCQQSYTTPPTFGQGTKVEIKRTVAAPSVFIFPPDIQMTQSPSSLSASVGDRVTITCRASQDVSTAVAWYQQKPGKAPKLLIYSASFLYSGVPSRFSGSGSGTDFTLTISSLQPEDFATTYYCQQSYTGTVTFGQGTKVEIKR | 2.78 | 
 | DVD478 (VEGF/DLL4 DVD-Ig) (bispecific antibody, human IgG1, HC linker long, LC linker short; also called DVD478H; DVD478L) VH: EVQLVESGGGLVQPGGSLRLSCAASGFTISDYWIHWVRQAPGKGLEWVAGITPAGGYTYYADSVKGRFTISADTSKNTAYLQMNSLRAEDTAVYYCARFVFFLPYAMDYWGQGTLVTVSSASTKGPSVFPLAPEVQLVESGGGLVQPGGSLRLSCAASGFTFTDNWISWVRQAPGKGLEWVGYISPNSGFTYYADSVKGRFTISADTSKNTAYLQMNSLRAEDTAVYYCARDNFGGYFDYWGQGTLVTVSS VL: DIQMTQSPSSLSASVGDRVTITCRASQDVSTAVAWYQQKPGKAPKLLIYSASFLYSGVPSRFSGSGSGTDFTLTISSLQPEDFATYYCQQSYTTPPTFGQGTKVEIKRTVAAPDIQMTQSPSSLSASVGDRVTITCRASQDVSTAVAWYQQKPGKAPKLLIYSASFLYSGVPSRFSGSGSGTDFTLTISSLQPEDFATTYYCQQSYTGTVTFGQGTKVEIKR |  | EC50 [3]: 2.53 nM
 | DVD496 (VEGF/DLL4 DVD-Ig) (bispecific antibody, human IgG1, HC linker long, LC linker long; also called DVD496H; DVD496L) VH: EVQLVESGGGLVQPGGSLRLSCAASGFTISDYWIHWVRQAPGKGLEWVAGITPAGGYTYYADSVKGRFTISADTSKNTAYLQMNSLRAEDTAVYYCARFVFFLPYAMDYWGQGTLVTVSSASTKGPSVFPLAPEVQLQQSGPELVKPGASVKMSCKASGYTFTSYVINWVKQKPGQGLEWIGLINPYNDGTKYNEKFKVKATLTSDKSSSTAYMELSSLTSEDSAVYYCASYYYGSRYYFDYWGQGTTLTVSS VL: DIQMTQSPSSLSASVGDRVTITCRASQDVSTAVAWYQQKPGKAPKLLIYSASFLYSGVPSRFSGSGSGTDFTLTISSLQPEDFATYYCQQSYTTPPTFGQGTKVEIKRTVAAPSVFIFPPDIQMTQSSSYLSVSLGGRVTITCKASDHINNWLAWYQQKPGNAPRLLISGATSLETGVPSRFSGSGSGKDYTLSITSLQTEDVATYYCQQYWSIPLTFGAGTKLELKR | 5.59 | 
0.69 | DVD477 (DLL4/VEGF DVD-Ig) (bispecific antibody, human IgG1, HC linker long, LC linker short; also called DVD477H; DVD477L) VH: EVQLVESGGGLVQPGGSLRLSCAASGFTFTDNWISWVRQAPGKGLEWVGYISPNSGFTYYADSVKGRFTISADTSKNTAYLQMNSLRAEDTAVYYCARDNFGGYFDYWGQGTLVTVSSASTKGPSVFPLAPEVQLVESGGGLVQPGGSLRLSCAASGFTISDYWIHWVRQAPGKGLEWVAGITPAGGYTYYADSVKGRFTISADTSKNTAYLQMNSLRAEDTAVYYCARFVFFLPYAMDYWGQGTLVTVSS VL: DIQMTQSPSSLSASVGDRVTITCRASQDVSTAVAWYQQKPGKAPKLLIYSASFLYSGVPSRFSGSGSGTDFTLTISSLQPEDFATTYYCQQSYTGTVTFGQGTKVEIKRTVAAPDIQMTQSPSSLSASVGDRVTITCRASQDVSTAVAWYQQKPGKAPKLLIYSASFLYSGVPSRFSGSGSGTDFTLTISSLQPEDFATYYCQQSYTTPPTFGQGTKVEIKR |  | 
 | DVD450 (VEGF/DLL4 DVD-Ig) (bispecific antibody, human IgG1, HC linker long, LC linker long; also called DVD450H; DVD450L) VH: EVQLVESGGGLVQPGGSLRLSCAASGFTISDYWIHWVRQAPGKGLEWVAGITPAGGYTYYADSVKGRFTISADTSKNTAYLQMNSLRAEDTAVYYCARFVFFLPYAMDYWGQGTLVTVSSASTKGPSVFPLAPQVQLVQSGAEVKKPGASVKISCKASGYSFTAYYIHWVKQAPGQGLEWIGYISSYNGATNYNQKFKGRVTFTTDTSTSTAYMELRSLRSDDTAVYYCARDYDYDVGMDYWGQGTLVTVSS VL: DIQMTQSPSSLSASVGDRVTITCRASQDVSTAVAWYQQKPGKAPKLLIYSASFLYSGVPSRFSGSGSGTDFTLTISSLQPEDFATYYCQQSYTTPPTFGQGTKVEIKRTVAAPSVFIFPPDIVMTQSPDSLAVSLGERATISCRASESVDNYGISFMKWFQQKPGQPPKLLIYAASNQGSGVPDRFSGSGSGTDFTLTISSLQAEDVAVYYCQQSKEVPWTFGGGTKVEIKR | 1.99 | 
 | DVD456 (VEGF/DLL4 DVD-Ig) (bispecific antibody, human IgG1, HC linker long, LC linker short; also called DVD456H; DVD456L) VH: EVQLVESGGGLVQPGGSLRLSCAASGFTISDYWIHWVRQAPGKGLEWVAGITPAGGYTYYADSVKGRFTISADTSKNTAYLQMNSLRAEDTAVYYCARFVFFLPYAMDYWGQGTLVTVSSASTKGPSVFPLAPQVQLVQSGAEVKKPGASVKISCKASGYSFTAYYIHWVKQAPGQGLEWIGYISSYNGATNYNQKFKGRVTFTTDTSTSTAYMELRSLRSDDTAVYYCARDYDYDVGMDYWGQGTLVTVSS VL: DIQMTQSPSSLSASVGDRVTITCRASQDVSTAVAWYQQKPGKAPKLLIYSASFLYSGVPSRFSGSGSGTDFTLTISSLQPEDFATYYCQQSYTTPPTFGQGTKVEIKRTVAAPDIVMTQSPDSLAVSLGERATISCRASESVDNYGISFMKWFQQKPGQPPKLLIYAASNQGSGVPDRFSGSGSGTDFTLTISSLQAEDVAVYYCQQSKEVPWTFGGGTKVEIKR |  | EC50 [3]: 2.48 nM
0.24 | DVD455 (DLL4/VEGF DVD-Ig) (bispecific antibody, human IgG1, HC linker long, LC linker short; also called DVD455H; DVD455L) VH: QVQLVQSGAEVKKPGASVKISCKASGYSFTAYYIHWVKQAPGQGLEWIGYISSYNGATNYNQKFKGRVTFTTDTSTSTAYMELRSLRSDDTAVYYCARDYDYDVGMDYWGQGTLVTVSSASTKGPSVFPLAPEVQLVESGGGLVQPGGSLRLSCAASGFTISDYWIHWVRQAPGKGLEWVAGITPAGGYTYYADSVKGRFTISADTSKNTAYLQMNSLRAEDTAVYYCARFVFFLPYAMDYWGQGTLVTVSS VL: DIVMTQSPDSLAVSLGERATISCRASESVDNYGISFMKWFQQKPGQPPKLLIYAASNQGSGVPDRFSGSGSGTDFTLTISSLQAEDVAVYYCQQSKEVPWTFGGGTKVEIKRTVAAPDIQMTQSPSSLSASVGDRVTITCRASQDVSTAVAWYQQKPGKAPKLLIYSASFLYSGVPSRFSGSGSGTDFTLTISSLQPEDFATYYCQQSYTTPPTFGQGTKVEIKR |  | 

— patent US20100260668A1 (published 2010)
